What was measured:
[1] = target: Fluc^A12C-K329C (Fluc^NDS1, N-terminal domain sensor) (firefly); test: FRET or BRET; single-molecule FRET (TIRF) within AF555/AF647-labelled Fluc immobilised on a neutravidin coverslip; the low-FRET (<0.3) state is read as DnaK bound; DnaJ 0.6 uM, DnaK 20 uM, GrpE 1.2 uM and HtpG 10 uM (KJEG); ATP; imaging buffer, room temperature
[2] = target: Fluc^K378C-K496C (Fluc^CDS1, C-terminal domain sensor) (firefly); test: as above

percent of the time DnaK bound (<0.3 FRET) after 15 min [1]: 15% | percent of the time DnaK bound (<0.3 FRET) after 15 min [2]: 15%
Substance: DnaK (Escherichia coli Hsp70) (from UniProt P0A6Y8 1-638) (natural protein)
